IC50 and Ki data for 15 molecules are collected here from patent US20170281720A1 (published 2017).

For assay [1], the target named is MDM2 (In-house, 41 kD) (UniProt Q00987). The experiment in a line: competitive fluorescence polarization on MDM2 against FAM-labeled linear peptide; grade, scale in paragraph 462.
Assay [2] has as its target T1, MDMX (In-house, 40 kD) (UniProt O15151).
T1 sequence (looked up): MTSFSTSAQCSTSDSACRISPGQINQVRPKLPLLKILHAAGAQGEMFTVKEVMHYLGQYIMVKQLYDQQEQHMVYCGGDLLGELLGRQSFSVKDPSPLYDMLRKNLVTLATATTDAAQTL
The experiment in a line: competitive fluorescence polarization on MDMX against FAM-labeled linear peptide; grade, scale in paragraph 462.

Assay [3] addresses T2, MDMX (In-house, 40 kD) (UniProt O15151 1-120, limits assumed).
T2 construct: The construct used is unknown; also called MDM4
T2 sequence (looked up): T1 sequence (looked up)
The experiment in a line: IC50 (MDMX) grade; competitive FP vs FAM-labeled linear peptide; + = >1000 nM.

For assay [4], the target named is T3, MDMX (In-house, 40 kD) (UniProt O15151 1-120, limits assumed).
T3 construct: Construct not described beyond 'In-house, 40 kD'; also called MDM4
T3 sequence (looked up): T1 sequence (looked up)
The experiment in a line: FP competition on MDMX vs FAM-labeled linear peptide; graded Ki, + = >1000 nM.

Assay [5] deals with T3, MDMX (In-house, 40 kD). The assay is described as follows: FP competition on MDMX vs FAM-labeled linear peptide; graded IC50, + = >1000 nM.
In assay [6] the target is T4, MDM2 (In-house, 41 kD) (UniProt Q00987 1-125, limits assumed).
T4 construct: Only 'In-house, 41 kD' is said of the protein used in the fluorescence polarization assays; also called HDM2
T4 sequence (Q00987 1-125 limits assumed): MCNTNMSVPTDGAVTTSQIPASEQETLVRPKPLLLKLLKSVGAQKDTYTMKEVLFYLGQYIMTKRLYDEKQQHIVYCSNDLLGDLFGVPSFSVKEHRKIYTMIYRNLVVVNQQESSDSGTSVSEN
The assay is described as follows: competitive fluorescence polarization on MDM2 against FAM-labeled linear peptide; grade, scale in paragraph 462. In general terms: In fluorescence polarisation assays a small probe gives low polarisation when free and higher when bound to something large.

Assay [7] addresses T5, MDMX (In-house, 40 kD) (UniProt O15151 1-120, limits assumed).
T5 construct: Only 'In-house, 40 kD' is said of the protein used in the fluorescence polarization assays; also called MDM4
T5 sequence (looked up): T1 sequence (looked up)
The experiment in a line: competitive fluorescence polarization on MDMX against FAM-labeled linear peptide; grade, scale in paragraph 462.

Several values for one entry are separate records, joined by “and”; a condition that tells them apart may be missing. Identical values can stand only once. Bridges are numbered along the chain shown (N, C = ends). [ ]: non-standard residue; d: D form. The star is where a group is joined. Palmitoyl = CCCCCCCCCCCCCCCC(=O)*; R8 = C=CCCCCCC[C@@](C)(N)C(=O)O; Cba = N[C@@H](CC1CCC1)C(=O)O; hLeu = CC(C)CC[C@H](N)C(=O)O; S5 = C=CCCC[C@](C)(N)C(=O)O; Napac = not defined here; F4g = not defined here; G1a = not defined here

The IC50 is the point on the concentration scale where inhibition reaches its midpoint. Usually Ki stands for a measure of affinity in units of concentration, obtained from inhibition or displacement.

Chain of MDM2 (In-house, 41 kD) (UniProt Q00987) (Q00987 1-125 limits assumed): as above

For “SP754, Ac-tawya$r5f4CF3ek$r51r-NH2 (peptide)”, the 50% inhibitory concentration (IC50) is > 100 nM and < 1000 nM with MDM2 (In-house, 41 kD) [1]; over 1000 nM with MDMX (In-house, 40 kD) [2]. For the molecule “SP757, Ac-tawy$s8nf4CF3ek11$r5a-NH2 (peptide)”, the IC50 with MDM2 (In-house, 41 kD) [1] was under 10 nM; with MDMX (In-house, 40 kD) [2] it was over 1000 nM.

On to “SP753, Ac-tawy$r5nf4CF3e$r511r-NH2 (peptide)”, for which the IC50 with MDM2 (In-house, 41 kD) [1] was > 10 nM and < 100 nM; in the assay with MDMX (In-house, 40 kD) [2], over 1000 nM.

With “SP758, Ac-tawya$s8f4CF3e1d1r$r5a-NH2 (peptide)”, the half-maximal inhibitory concentration (IC50) with MDM2 (In-house, 41 kD) [1] was > 10 nM and < 100 nM; with MDMX (In-house, 40 kD) [2] it was over 1000 nM.

Turning to “SP756, Ac-t$s8wyanf4CF3e$r511r-NH2 (peptide)”, the IC50 in the assay with MDM2 (In-house, 41 kD) [1] was > 10 nM and < 100 nM; with MDMX (In-house, 40 kD) [2], over 1000 nM. Take “SP752, Ac-t$r5wya$r5f4CF3e1d1r-NH2 (peptide)”: the IC50 in the assay with MDM2 (In-house, 41 kD) [1] was > 100 nM and < 1000 nM; with MDMX (In-house, 40 kD) [2], over 1000 nM. “SP755, Ac-tawyanf4CF3e$r511r$r5a-NH2 (peptide)”: the IC50 in the assay with MDM2 (In-house, 41 kD) [1] is under 10 nM; in the assay with MDMX (In-house, 40 kD) [2], over 1000 nM.

B1: SP281 (peptide)
peptide: Napac-LTF[R8]EYWAQ[hLeu][S5]SAA-NH2
modifications: staple 4-11; reading uncertain
notes: Peptidomimetic macrocycle (stapled p53-derived peptide)
Regarding B1, the IC50 in the assay with MDMX (In-house, 40 kD) [3] was over 1000 nM.

B2: SP250, Pam-ETF$r8EYWAQCba$SAA-NH2 (peptide)
peptide: Palmitoyl-ETF[R8]EYWAQ[Cba][S5]SAA-NH2
modifications: staple 4-11
With B2, the Ki with MDMX (In-house, 40 kD) [4] was over 1000 nM. Further, in the assay with MDMX (In-house, 40 kD) [5], the IC50 is over 1000 nM.

B3: SP609, Ac-LTF$r8EYWAAibL$AAAAAa-NH2 (peptide)
peptide: LTFAEYWAXLAAAAAAA
modifications: not fully specified; N-terminal acetyl; $r8 (alpha-Me R8-octenyl-alanine) at 4 crosslinked to $ (alpha-Me S5-pentenyl-alanine) at 11; Aib (2-aminoisobutyric acid) at 9; D-alanine at 17; C-terminal amide
notes: stapled peptidomimetic macrocycle
The molecule B3 gave a Ki with MDM2 (In-house, 41 kD) [6] of at most 10 nM.

B4: SP602, Ac-LTF$r8G1aYWAQL$AAAAAa-NH2 (peptide)
peptide: Ac-LTF[R8][G1a]YWAQL[S5]AAAAA[dA]-NH2
modifications: staple 4-11; not fully specified; reading uncertain
notes: as for B3
With B4, the Ki with MDMX (In-house, 40 kD) [7] was at most 10 nM; in the assay with MDM2 (In-house, 41 kD) [6] it was at most 10 nM.

B5: SP611, Ac-LTF$r8EYWANL$AAAAAa-NH2 (peptide)
peptide: Ac-LTF[R8]EYWANL[S5]AAAAA[dA]-NH2
modifications: staple 4-11
notes: as for B3
As for B5, the inhibition constant Ki in the assay with MDM2 (In-house, 41 kD) [6] was at most 10 nM.

B6: SP603, Ac-LTF$r8F4gYWAQL$AAAAAa-NH2 (peptide)
peptide: Ac-LTF[R8][F4g]YWAQL[S5]AAAAA[dA]-NH2
modifications: staple 4-11; not fully specified; reading uncertain
notes: as for B3
Turning to B6, the inhibition constant Ki in the assay with MDMX (In-house, 40 kD) [7] is at most 10 nM; with MDM2 (In-house, 41 kD) [6], at most 10 nM.

B7: SP610, Ac-LTF$r8EYWASL$AAAAAa-NH2 (peptide)
peptide: Ac-LTF[R8]EYWASL[S5]AAAAA[dA]-NH2
modifications: staple 4-11
notes: as for B3
B7 came in with a Ki with MDM2 (In-house, 41 kD) [6] of at most 10 nM.

B8: SP613, Ac-LTF$r8EYWAHL$AAAAAa-NH2 (peptide)
peptide: Ac-LTF[R8]EYWAHL[S5]AAAAA[dA]-NH2
modifications: staple 4-11
notes: as for B3
The molecule B8 returned a Ki with MDM2 (In-house, 41 kD) [6] of at most 10 nM.
